Molecular target: mucins in cell-free regions of human cervicovaginal mucus (CVM) (human (endogenous in cervicovaginal mucus))
Test: FRAP (fluorescence recovery after photobleaching); labeled exogenous IgG (0.1–1.5 mg/mL final) stirred into 10 μL of fresh pH-neutralized (pH 6.8–7.1) human CVM, 1 hr at 37°C; about 10 μm x 10 μm ROIs in cell-free regions; recovery half-time against PBS (Dcvm/Dpbs); 7–9 repeats

Substance: Human intravenous immunoglobulin (IVIG), FITC-labeled (antibody)
- Dcvm/Dpbs: 0.8

Source: publication PMC4928780
